Data reported in patent US10624968B2, “Compounds for treating cancer” (Bicycle Therapeutics Limited, priority 2017, dated 2020).
Read-outs that look alike come from different tables or passages of the source. Starred links: 1 amine or outer side, 2 acyl side, 3 side chain; linkers in the order of their positions; H or OH if unused. Positions of bridges follow the written chain, without caps; N, C: chain ends. Non-standard residues stand in square brackets, D forms with d. Residues, ends and D or L forms follow the SMILES beside them. Chains are numbered I, II in the order given. ξ: configuration not given here. *: point of attachment. Dolaproine = CO[C@@H]([C@@H]1CCCN1)[C@@H](C)C(=O)O; Dil = CC[C@H](C)[C@H](NC)[C@@H](CC(=O)O)OC; TBMB = c1c(C[*:1])cc(C[*:3])cc1C[*:2]; X2 = O=C(CCCC(=O)[*:2])NCCC(=O)[*:1]; PABC = O=C(OCc1ccc(N[*:1])cc1)[*:2]; X1 = C[C@@H](N*)[C@@H](O)c1ccccc1; ξ1Nal = NC(Cc1cccc2ccccc12)C(=O)O; Cit = NC(=O)NCCC[C@H](N)C(=O)O; NMeV = CN[C@H](C(=O)O)C(C)C; ξY = NC(Cc1ccc(O)cc1)C(=O)O; ξTle = CC(C)(C)C(N)C(=O)O; ξF = NC(Cc1ccccc1)C(=O)O; ξE = NC(CCC(=O)O)C(=O)O; ξD = NC(CC(=O)O)C(=O)O; ξN = NC(=O)CC(N)C(=O)O; ξC = NC(CS)C(=O)O; ξA = CC(N)C(=O)O; Sar = CNCC(=O)O

Experiments:
11 tumor cell lines = assay: 11 cancer cell line panel cytotoxicity, statements on the whole panel; conditions: all tested cell lines; 72 hours
Source text: (§1) Details of the initial cell plating procedure are described in Table 3.
(§2) Data Details for Tables 5 and 6. Inhibition %=(Max−Sample value)/(Max−Min)*100.
(§3) The IC50 curves were generated by 4 Parameter Logistic Model—Sigmoidal Dose-Response Model as follows: Y=Bottom+(Top−Bottom)/(1+10^((log EC50-X)*HillSlope)).

[1] = Plasma stability (LC-MS/MS assay), human plasma; format: in vitro ADME; conditions: pH 7.4 at 37° C.
Procedure: (§4) I-1a plasma stability studies were conducted in human and mouse plasma.
(§5) In vitro plasma stability assay measures the extent of degradation of compounds in plasma.
(§6) Peptides or BDCs are incubated at 37° C. in plasma (mouse or human) at low micromolar concentrations for several hours. The stability is quantitatively measured by LC-MS/MS.
(§7) Add 8 μL of the 160 μM DMSO stock of peptide or BDC and add 8 μL of 160 μM DMSO stock of 06-34-18-N182 as internal standard to 304 μL of plasma (152 μL*2) for a final concentration of 4 μM (5% DMSO).
(§8) Incubate at 37° C. in 100% humidity.
(§9) Pipette out 40 μL for 7 timepoints: time 0, 1 h, 2 h, 4 h, 6 h, 8 h, 24 h into a 1.5 mL Eppendorf. Store at −80° C. immediately. (total volume of samples?×40=280 μL).
(§10) Add to the sample the extraction solvent. The extraction solvent contains 1 part of water, 3 parts of methanol, and 3 parts of acetonitrile.
(§11) To the time course samples add 120 μL of extraction solvent, mix thoroughly with pipette and gently vortex.
Centrifuge for 40 minutes at 14000 rpm at 4° C. […]
It is recommend to follow one transition for the peptide of BDCs to study, and one transition for the internal standard 06-34-18-N182 at the same time. The most relevant Selected Ion Reaction (SIR) and Multiple Reaction Monitoring (MRM) transitions were determined for each peptide or BDC. […]

[2] = Body weight in HT1080 xenograft model (Example 7); format: in vivo; conditions: any of the doses tested (1, 3, and 10 mg/kg)
Procedure: I-1a was evaluated in a HT1080 xenograft model at 1, 3, and 10 mg/kg. Additionally the ability of the binding peptide (the Bicycle+Spacer of I-1a, structure shown in Example 6) to abrogate activity when dosed at a 100-fold excess immediately before treatment with I-1a in the HT1080 xenograft model was assessed.

L540 cells = assay: Cytotoxicity in L540 cells in presence and absence of 1 mM bacitracin (ATPlite, 72 hour exposure); format: cell-based
Procedure: L540 cells (DSMZ # ACC72, BIC5121), maintained in RPMI-1640 medium (Sigma # R8758)+20% heat-inactivated serum
L540—20 k cells/well: 40% confluent upon dosing.
Bacitracin=1 mM final concentration. This requires a 10 mM concentration with no DMSO.
Add 100 μL reagent per well. […] Shake for 20 mins before reading luminescence

[3] = Tolerability (body weight) in LU-01-0486 NSCLC PDX model; format: in vivo, mouse
Procedure: (§12) All the procedures related to animal handling, care and the treatment in the study were performed following the guidance of the Association for Assessment and Accreditation of Laboratory Animal Care (AAALAC). At the time of routine monitoring, the animals were daily checked for any effects of tumor growth and treatments on normal behavior such as mobility, food and water consumption (by looking only), body weight gain/loss (body weights were measured twice weekly), eye/hair matting and any other abnormal effect as stated in the protocol. Death and observed clinical signs were recorded on the basis of the numbers of animals within each subset.

HT29 = assay: cells; conditions: read-out: Re IC50; HT29; 72 hours
Source text: as §1, §2, §3

MOLP-8 = assay: cells; conditions: read-out: Re IC50; MOLP-8; 72 hours
Source text: as §1, §2, §3

NCI-H292 = assay: cells; conditions: read-out: Re IC50; NCI-H292; 72 hours
Source text: as §1, §2, §3

SNU-16 = assay: cells; conditions: read-out: Re IC50; SNU-16; 72 hours
Source text: as §1, §2, §3

[4] = Body weight of mice bearing EBC-1 xenograft (indirect measure of toxicity); format: in vivo, mouse
Procedure: as §12, with “according to” for “following”, “guidelines” for “guidance”, “every day),” for “twice weekly),”
Animal body weight was monitored regularly as an indirect measure of toxicity.

[5] = Plasma stability (LC-MS/MS assay), mouse plasma, with and without AEBSF; format: in vitro ADME
Procedure: as §4, §5, §6, §7, §8, §9, §10, §11
Centrifuge for 40 minutes at 14000 rpm at 4° C.
Transfer the supernatant to the LC-MS vials and run the experiment immediately afterwards.
It is recommend to follow one transition for the peptide of BDCs to study, and one transition for the internal standard 06-34-18-N182 at the same time. The most relevant Selected Ion Reaction (SIR) and Multiple Reaction Monitoring (MRM) transitions were determined for each peptide or BDC.
The analysis of the data has been performed using “QuanLynks” and “Sigmaplot” software.
For the studies depicted in FIGS. 1-3, the following conditions were used.
Column: Waters ACQUITY CSH Phenyl-Hexyl 1.7 μm 2.1×50 mm
Mobile Phase: […] ammonium bicarbonate in water; B=5 mM ammonium bicarbonate 10% water in acetonitrile.
Gradient: 5 to 60% B in 4 minutes at 0.6 mL/min flow.
To test the hypothesis that plasma instability in mouse was due to Ces1c, I-1a was incubated in mouse plasma both in the presence and absence of AEBSF,
Additionally, formation of the MMAE metabolite in mouse plasma (release of the toxin) was monitored both in the presence and absence of AEBSF.

## CC[C@H](C)[C@@H]([C@@H](CC(=O)N1CCC[C@H]1[C@H](OC)[C@@H](C)C(=O)N[C@H](C)[C@@H](O)c1ccccc1)OC)N(C)C(=O)[C@@H](NC(=O)[C@H](C(C)C)N(C)C(=O)OCc1ccc(NC(=O)[C@H](CCCNC(N)=O)NC(=O)[C@@H](NC(=O)CCCC(=O)NCCC(=O)N(C)CC(=O)N(C)CC(=O)N(C)CC(=O)N(C)CC(=O)N(C)CC(=O)N(C)CC(=O)N(C)CC(=O)N(C)CC(=O)N(C)CC(=O)N(C)CC(=O)NC(C)C(=O)NC2CSCc3cc4cc(c3)CSCC(NC(=O)C(C)NC(=O)C(Cc3cccc5ccccc35)NC(=O)C(CCC(=O)O)NC(=O)C(CC(N)=O)NC(=O)C(C)NC2=O)C(=O)NC(CCC(=O)O)C(=O)NC(CC(=O)O)C(=O)NC(Cc2ccccc2)C(=O)NC(Cc2ccc(O)cc2)C(=O)NC(CC(=O)O)C(=O)NC(C(C)(C)C)C(=O)NC(C(N)=O)CSC4)C(C)C)cc1)C(C)C (stereo partly shown) [Compound I-1a] (I: [Sar][Sar][Sar][Sar][Sar][Sar][Sar][Sar][Sar][Sar][ξA][ξC][ξA][ξN][ξE][ξ1Nal][ξA][ξC][ξE][ξD][ξF][ξY][ξD][ξTle][ξC]-NH2 / II: V[Cit][PABC][NMeV]V[Dil][Dolaproine]-X1; linker I:12-I:18-I:25 via TBMB; linker I:N-II:N via X2)
11 tumor cell lines
  cytotoxic activity over the cell line panel (in words): works well on all cell lines except HCT-15
[1]
  half-life at 1 μM: > 24 h
[1]; read-out: % remained after 24 hours incubation
  remaining at 24 h, 1 μM: 96%
[2]
  effect on body weight (in words): No dose-related effects on body weight
L540 cells; 72 hour exposure (low/no MT1 expression), no block, read-out: Standard IC50
  IC50: 1090 nM
L540 cells; 72 hour exposure, 1 mM bacitracin vs none
  Fold shift with bacitracin: 2.3
L540 cells; read-out: IC50 with 1 mM bacitracin, 72 hour exposure, + 1 mM bacitracin
  IC50: 2550 nM
[3]; 1 mg/kg
  effect on body weight (in words): no significant effect on body weight
[3]; 3 mg/kg
  effect on body weight (in words): without significant effect on body weight
HT29
  IC50: 219 nM
MOLP-8
  IC50: 197 nM
NCI-H292
  IC50: 56.2 nM
SNU-16
  IC50: 63.3 nM
[4]; 1 mg/kg i.v. tiw x2 w, day 0
  Body Weight: 23.4 g
[4]; 1 mg/kg i.v. tiw x2 w, day 2
  Body Weight: 23.3 g
[4]; 1 mg/kg i.v. tiw x2 w, day 4
  Body Weight: 23.6 g
[4]; 1 mg/kg i.v. tiw x2 w, day 7
  Body Weight: 23.8 g
[4]; 1 mg/kg i.v. tiw x2 w, day 9
  Body Weight: 24.0 g
[4]; 1 mg/kg i.v. tiw x2 w, day 11
  Body Weight: 24.0 g
[4]; 1 mg/kg i.v. tiw x2 w, day 14
  Body Weight: 23.8 g
[4]; 3 mg/kg i.v. tiw x2 w, day 0
  Body Weight: 21.9 g
[4]; 3 mg/kg i.v. tiw x2 w, day 2
  Body Weight: 21.4 g
[4]; 3 mg/kg i.v. tiw x2 w, day 4
  Body Weight: 21.7 g
[4]; 3 mg/kg i.v. tiw x2 w, day 7
  Body Weight: 22.3 g
[4]; 3 mg/kg i.v. tiw x2 w, day 9
  Body Weight: 22.4 g
[4]; 3 mg/kg i.v. tiw x2 w, day 11
  Body Weight: 22.0 g
[4]; 3 mg/kg i.v. tiw x2 w, day 14
  Body Weight: 22.0 g
[4]; 10 mg/kg i.v. tiw x2 w, day 0
  Body Weight: 23.1 g
[4]; 10 mg/kg i.v. tiw x2 w, day 2
  Body Weight: 21.8 g
[4]; 10 mg/kg i.v. tiw x2 w, day 4
  Body Weight: 20.8 g
[4]; 10 mg/kg i.v. tiw x2 w, day 7
  Body Weight: 19.3 g
[4]; 10 mg/kg i.v. tiw x2 w, day 9
  Body Weight: 22.0 g
[4]; 10 mg/kg i.v. tiw x2 w, day 11
  Body Weight: 20.6 g
[4]; 10 mg/kg i.v. tiw x2 w, day 14
  Body Weight: 22.4 g
[4]; 10 mg/kg, 3× weekly schedule for two weeks
  effect on body weight (in words): brief body weight loss which is reversible upon discontinuation of treatment
[5]; mouse plasma without AEBSF, pH 7.4 at 37° C.
  half-life at 4 μM: 24 h
[5]; mouse plasma without AEBSF, pH 7.4 at 37° C., read-out: % remained after 24 hours incubation
  remaining at 24 h, 4 μM: 50%
[5]; mouse plasma, in the absence of AEBSF
  formation of the MMAE metabolite (release of the toxin): I-1a degradation tracks with the appearance of free MMAE
[5]; mouse plasma, in the presence of AEBSF
  formation of the MMAE metabolite (release of the toxin): lack of formation of free MMAE
[5]; mouse plasma, 1 μM, pH 7.4 at 37° C.
  half-life at 1 μM: 6.4 h
[5]; mouse plasma, 1 μM, pH 7.4 at 37° C., read-out: % remained after 24 hours incubation
  remaining at 24 h, 1 μM: 57%
[5]; with AEBSF (concentration not stated), mouse plasma +AEBSF, pH 7.4 at 37° C.
  half-life at 4 μM: > 24 h
[5]; with AEBSF (concentration not stated), mouse plasma +AEBSF, pH 7.4 at 37° C., read-out: % remained after 24 hours incubation
  remaining at 24 h, 4 μM: 100%
